Columns and labels:
[1] = target: beak and feather disease virus capsid (Cap) protein, residues 14-247 (beak and feather disease virus (BFDV)); test: crystal structure; 60-mer crystals: 0.8 M Na/K hydrogen phosphate pH 7.4, 290 K; space group F432; no ssDNA
[2] = target: beak and feather disease virus capsid (Cap) protein, residues 14-247 (beak and feather disease virus (BFDV)); test: crystal structure; 60-mer co-crystallised with ssDNA oligonucleotides labelled with AlexaFluor488 and AlexaFluor647; space group F432
[3] = target: beak and feather disease virus capsid (Cap) protein, residues 14-247 (beak and feather disease virus (BFDV)); test: crystal structure; 10-mer crystals: 1.1 M ammonium sulfate, Tris pH 8.5, 0.1 M iron chloride, 290 K; space group P212121; no ssDNA

“beak and feather disease virus capsid (Cap) protein, residues 14-247 (domain or fragment)” showed a stoichiometry N [1] of 60, a stoichiometry N [2] of 60 and a stoichiometry N [3] of 10.
